# Measurements: US9395368B2, “Methods, agents and peptides for inducing an immune response to matrix metalloproteinase-2 expressing tumors” (New York University, priority 2010, dated 2016)
# B1: active MMP-2: Purified human MMP-2 (mixture of the proenzyme (50%) and the active form (50%)) purchased from Biomol (protein, listed as Homo sapiens)
# chain: MEALMARGALTGPLRALCLLGCLLSHAAAAPSPIIKFPGDVAPKTDKELAVQYLNTFYGCPKESCNLFVLKDTLKKMQKFFGLPQTGDLDQNTIETMRKPRCGNPDVANYNFFPRKPKWDKNQITYRIIGYTPDLDPETVDDAFARAFQVWSDVTPLRFSRIHDGEADIMINFGRWEHGDGYPFDGKDGLLAHAFAPGTGVGGDSHFDDDELWTLGEGQVVRVKYGNADGEYCKFPFLFNGKEYNSCTDTGRSDGFLWCSTTYNFEKDGKYGFCPHEALFTMGGNAEGQPCKFPFRFQGTSYDSCTTEGRTDGYRWCGTTEDYDRDKKYGFCPETAMSTVGGNSEGAPCVFPFTFLGNKYESCTSAGRSDGKMWCATTANYDDDRKWGFCPDQGYSLFLVAAHEFGHAMGLEHSQDPGALMAPIYTYTKNFRLSQDDIKGIQELYGASPDIDLGTGPTPTLGPVTPEICKQDIVFDGIAQIRGEIFFFKDRFIWRTVTPRDKPMGPLLVATFWPELPEKIDAVYEAPQEEKAVFFAGNEYWIYSASTLERGYPKPLTSLGLPPDVQRVDAAFNWSKNKKTYIFAGDKFWRYNEVKKKMDPGFPKLIADAWNAIPDNLDAVVDLQGGGHSYFFKGAYYLKLENQSLKSVKFGSIKSDWLGC
# Columns and labels:
# [1] = tested on: phosphorylated (Y701) STAT1; test: Intracellular staining of phosphorylated (Y701) STAT1 in DCs; type: cell-based, human; details: DCs preincubated 1 h (5 μg/mL) prior to poly(I:C), 3 h
# Protocol: Immature DCs were incubated with MMP-2 (0.5 μg/mL or 5 μg/mL) and poly(I:C)-matured 1 h later. IL-12 levels were measured 16 h later. (A) Results are represented as a percentage of IL-12p70 levels, measured by CBA, produced when DCs were incubated with poly(I:C) only (n=11). (B) For intracellular staining of IL-12p35 and IL-12p40 chains, Brefeldin A was added 4 h after poly(I:C) activation and cells were stained after an additional 12 h incubation. Numbers in the upper right quadrants are the percentages of each population for a representative donor (n=3). (C,D) Immature DCs were incubated with MMP-2 for 1 h (5 μg/mL) before poly(I:C) maturation. Intracellular staining of phosphorylated (Y701) STAT1 (P-STAT1) was performed 3 h later. A representative donor (C) and results for all 3 donors (D) are shown. […] (E) Immature DCs were incubated with MMP-2 and poly(I:C)-matured 1 h later. IFNβ levels were measured by ELISA 16 h later. Results are represented as a percentage of IFNβ levels produced when DCs were incubated with poly(I:C) only (n=9). […] IFNAR1 protein expression was detected the next day by Western blot analysis using a rabbit monoclonal antibody. […]
# Intracellular staining T-bet and GATA-3 expression was measured on resting T cells. […] Cytokine production by T cells was also assessed by intracellular staining T cells were stimulated with 2 μM overlapping peptides. […]
# IFNAR1 = IFNAR1 protein expression in DCs (Western blot); type: cell-based, human; details: n=7 donors
# Protocol: Immature DCs were incubated with MMP-2 (0.5 μg/mL or 5 μg/mL) and poly(I:C)-matured 1 h later. IL-12 levels were measured 16 h later. (A) Results are represented as a percentage of IL-12p70 levels, measured by CBA, produced when DCs were incubated with poly(I:C) only (n=11). (B) For intracellular staining of IL-12p35 and IL-12p40 chains, Brefeldin A was added 4 h after poly(I:C) activation and cells were stained after an additional 12 h incubation. Numbers in the upper right quadrants are the percentages of each population for a representative donor (n=3). (C,D) Immature DCs were incubated with MMP-2 for 1 h (5 μg/mL) before poly(I:C) maturation. Intracellular staining of phosphorylated (Y701) STAT1 (P-STAT1) was performed 3 h later. A representative donor (C) and results for all 3 donors (D) are shown. […] (E) Immature DCs were incubated with MMP-2 and poly(I:C)-matured 1 h later. IFNβ levels were measured by ELISA 16 h later. Results are represented as a percentage of IFNβ levels produced when DCs were incubated with poly(I:C) only (n=9). (F,G) 10^6DCs/lane were treated with 0.1 μg MMP-2 or controls. Poly(I:C) was added 1 h later. IFNAR1 protein expression was detected the next day by Western blot analysis using a rabbit monoclonal antibody. […]
# Western blots IFNAR1 and β-actin were detected by Western blot analysis using rabbit and mouse mAbs, respectively. […]
molecule,measurement,setting,value
B1,STAT1 phosphorylation,[1],decreased
same,expression of IFNAR1 chain on DCs,IFNAR1,drastically lost expression
